Reference: paper PMC5227068

Columns and labels:
[1] = target: human EPCR on CHO745-EPCR cells (human) (UniProt Q9UNN8); assay: flow cytometry on cells; competition: CHO745-EPCR cells coincubated for 30 min with 50 μg/ml (660 nM) or 250 μg/ml (3.3 µM) CIDR domains and 25 μg/ml (446 nM) APC; APC detected by anti-human protein C antibody
[2] = target: recombinant human endothelial protein C receptor (human) (UniProt Q9UNN8); assay: BLI; Octet Qke; EPCR on the biosensor, CIDR domain in solution; protocol as reported previously (ref. 40); double-reference subtracted data fitted to a 1:1 binding model
[3] = target: recombinant human CD36 (human) (UniProt P16671); assay: BLI; Octet Qke; hisCD36 immobilised on Ni-NTA biosensors, CIDR domains in solution; kinetics buffer (PBS, 0.02% Tween-20, 100 μg/ml bovine serum albumin, 0.005% sodium azide); association 600 or 900 s, dissociation 300 to 600 s; 1:1 fit
[4] = target: recombinant human CD36 (human) (UniProt P16671); assay: BLI; Octet Qke; hisCD36 immobilised on Ni-NTA biosensors, CIDR domain in kinetics buffer (PBS, 0.02% Tween-20, 100 ug/ml BSA, 0.005% sodium azide); association 600 or 900 s, dissociation 300 to 600 s; double-reference subtracted data fitted to a 1:1 binding model

Chain of recombinant human CD36 (human) (P16671 whole entry, the tested form may be a part): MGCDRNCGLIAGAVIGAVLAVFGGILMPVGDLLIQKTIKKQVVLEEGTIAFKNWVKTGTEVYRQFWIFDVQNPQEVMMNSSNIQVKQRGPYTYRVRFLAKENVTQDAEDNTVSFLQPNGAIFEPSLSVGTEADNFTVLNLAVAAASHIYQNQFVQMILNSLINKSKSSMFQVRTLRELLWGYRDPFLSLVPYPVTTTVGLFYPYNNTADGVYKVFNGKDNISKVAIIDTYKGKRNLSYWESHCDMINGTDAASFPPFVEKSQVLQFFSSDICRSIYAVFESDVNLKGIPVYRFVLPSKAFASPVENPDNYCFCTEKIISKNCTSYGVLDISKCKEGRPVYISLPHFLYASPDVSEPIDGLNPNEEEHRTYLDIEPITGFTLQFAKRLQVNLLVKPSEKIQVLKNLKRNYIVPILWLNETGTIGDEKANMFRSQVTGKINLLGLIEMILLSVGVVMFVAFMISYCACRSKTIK
Chain of recombinant human endothelial protein C receptor (human) (Q9UNN8 18-238): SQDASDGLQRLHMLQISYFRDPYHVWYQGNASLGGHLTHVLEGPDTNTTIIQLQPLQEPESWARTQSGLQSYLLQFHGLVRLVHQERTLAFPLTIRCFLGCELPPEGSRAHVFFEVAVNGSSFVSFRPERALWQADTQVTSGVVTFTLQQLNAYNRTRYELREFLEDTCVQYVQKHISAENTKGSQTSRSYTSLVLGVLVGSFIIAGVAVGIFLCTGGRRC
Chain of human EPCR on CHO745-EPCR cells (human) (Q9UNN8 18-238): as above

“P. falciparum var07 CIDRα1.4 (domain or fragment)” gave a percent reduction of APC binding at 50 μg/ml CIDR [1] of 85% and a percent reduction of APC binding at 250 μg/ml CIDR [1] of 98%.

“P. reichenowi var71 CIDRα1.4 (domain or fragment)” showed a koff [2] of 0.000268 s⁻¹ and a kon [2] of 11800 M⁻¹ s⁻¹.

With “P. falciparum var14 CIDRα5 (domain or fragment)” the Kd [3] was 3.2 nM, the koff [4] was 2.99e-05 s⁻¹ and the kon [4] was 9280 M⁻¹ s⁻¹.
